Source: the DeepSol protein solubility set

Assay: soluble on expression in E. coli; label from the status in PepcDB or PDB records

**Q.** For “SKEHREIAKKIAQKSMVLLKNENILPFTPQEKIALVGPGAQSQDILGAWSWQGKKEEAISLVAGAQKLTTNLLVAQEPFDYFEPTAAAIEEALTLASQADKVVVALGETDWMSGEAASRSDIRLPEKQLAVVAQIIEKNPNVVVTVYSGRPLDLQGIDVAKGIVQAWQPGTEGGNALAEILWGQYNPSGRLSMSFPETVGQVPIFYNVDNTGRPYESAPEEKYVSKYLDVSNYAKYPFGFGLSYSHF”, which “soluble on expression in E. coli” value is on record?
**A.** not soluble

**Q.** With “MTFRYRGPSPKGDQPKAIAGLVEALRDGERFVTLLGATGTGKTVTMAKVIEALGRPALVLAPNKILAAQLAAEFRELFPENAVEYFISYYDYYQPEAYVPGKDLYIEKDASINPEIERLRHSTTRSLLTRRDVIVVASVSAIYGLGDPREYRARNLVVERGKPYPREVLLERLLELGYQRNDIDLSPGRFRAKGEVLEIFPAYETEPIRVELFGDEVERISQVHPVTGERLRELPGFVLFPATHYLSPEGLEEILKEIEKELWERVRYFEERGEVLYAQRLKERTLYDLEMLRVMGTCPGVENYARYFTGKAPGEPPYTLLDYFPEDFLVFLDESHVTVPQLQGMYRGDYARKKTLVDYGFRLPSALDNRPLRFEEFLERVSQVVFVSATPGPFELAHSGRVVEQIIRPTGLLDPLVRVKPTENQILDLMEGIRERAARGERTLVTVLTVRMAEELTSFLVEHGIRARYLHHELDAFERQALIRDLRLGHYDCLVGINLLREGLDIPEVSLVAILDADKEGFLRSERSLIQTIGRAARNARGEVWLYADRVSEAMQRAIEETNRRRALQEAYNLEHGITPETVRKEVRAVIRPEGYEEAPLEADLSGEDLRERIAELELAMWQAAEALDFERAARLRDEIRALEARLQGVRAPEPVPGGRKRKRR” as the sequence, how does the “soluble on expression in E. coli” value read?
**A.** soluble

**Q.** For “MPLRVDTLTWLSTQAAPGRVMVWPAVRPGICPGPDVWRIPLGPLPHEFRGWIAPCRPRLGASEAGDWLRRPSEGALPGPYIALRSIPKLPPPEDISGILKELQQLAKELRQKRLSLGYSQADVGIAVGALFGKVLSQTTICRFEAQQLSVANMWKLRPLLKKWLKEVEAENLLGLCKMEMILQQSGKWRRASRERRIGNSLEKFFQRCPKPTPQQISHIAGCLQLQKDVVRVWFYNRSKMGSRPTNDASPREIVGTAGPPCPGAPVCFHLGLGLPVDIPHYTRLYSAGVAHSSAPATTLGLLRF”, which “soluble on expression in E. coli” value is on record?
**A.** soluble

**Q.** With “MSLKPCFGYIRVSTERQGDGASLEAQKDAITGFASQNNLEIVRWFEERETASKTGRPIFGEMMNALVSGAAEGLILHKVDRTARNFSDWSRLHEVAKLGIDVYFAADSLDFGTRGGQLLADIQMALAADYSRNLSQEVKKGIYGRIKNGVYPFRAPLGYLDTGGGNVKAIDPIKAPLVSQVFELYCSGDYSITSLTEEMQRRGLKGVGERPVVRRNIESILRNPFYCGKMLVRGKLYDGAHEPLISTAQYRRVAAIKAQRFVKKSTKHELLFRGLFTCGACGQVLTGERQKAHVYYRCHTPRCGRGAIREDRLEETLREKLARLEISPEDQVTLESDIRAWLNKDGVKDIEKSLRLRISDATARLDRLTDLLVDGAIDKPAYELRKQNVEFEKQQLREELDALERSRAEEKDLKALLALAADLSSLYDAAPPPKKRELIRNCLVAPCVMDGQLVSHPADWLVSLRKSPKTDEKSHSAPQAILEGVRVMHAVVDVEGHHHHHH” as the sequence, how does the “soluble on expression in E. coli” value read?
**A.** soluble

**Q.** For “MAHHHHHHMRPSFGSLDYNVLSNFCEKLFLAADKNDRNEVITKKTLQMFFTSKIFYEILNHFKNLSTEENKKYVYAKYKTIYLKKCFDNNITPEPGSPKNEDAVSEVDNKIDDEDKEEEEQITNDKYEHYEENNNDYYKGREKIGTQSKGTEDSVDFNLSLKHAQYAVNGIIKIIYIPRYSETRAQIIPFIFRIIFFFNGEEETKNIGYII”, which “soluble on expression in E. coli” value is on record?
**A.** not soluble

**Q.** With “MDNKNFQSKTGFNLENTYLTLPNIFFSEQNPKGSKNPKLIKFNTSLAEELGLNEEVLNSDFGLNIFAGNETFPGIVPIAQAYAGHQFGHFTMLGDGRALLLGEHVTKDCKRYDVQLKGSGRTIYSRGGDGKAALAPMLREYIISEGMHGLGIPTTRSLAVVSTGEEVLRERFEQGAILTRIASSHIRVGTFAYAAQWGTLEDLKSLADYTIKRHFPNIADNENKYILFLEEVINRQAELIVKWQSVGFIHGVMNTDNMVISGETIDYGPCAFMDTYDTNTVFSSIDYAGRYAYGNQPNMALWNLARFSEALLPLLNPNLDEAVNIAKKSISNFSKLYKKYWFNKMRTKLGLFTEKENDELLIEGLLSTMQKYEADFTNTFVSLTLNKFEDEKVFSSDEFKTWYALWQNRLKEENRPQEEVRNLMMNNNPYIIPRNHLVEEALKNAEKGDFTFMDNLLEALKNPYSYSKDLEKYTKLPEKSDTPYVTYCGTLEHHHHHH” as the sequence, how does the “soluble on expression in E. coli” value read?
**A.** not soluble

**Q.** Which “soluble on expression in E. coli” value does the source give for “MSLLKINSQLFAIEDTLDDLAAAFLNLEVVRTYKAAQKAFLADKHLQKEISNFQHYNEDYNDQKTFIKYRPEVKQLRRKIFEKKRQLDLNEKVIALRRAEVDLQEVLAKIAQKIAESVSSDVFVDTGLPLAPHKPPHKKGYGNNIKEREGHHHHHH” here?
**A.** soluble

**Q.** Which “soluble on expression in E. coli” value does the source give for “MTVPEEAQTLIGKHYRAPDHFLVGREKIREFAVAVKDDHPTHYSEPDAAAAGYPALVAPLTFLAIAGRRVQLEIFTKFNIPINIARVFHRDQKFRFHRPILANDKLYFDTYLDSVIESHGTVLAEIRSEVTDAEGKPVVTSVVTMLGEAAHHEADADATVAAIASILEHHHHHH” here?
**A.** soluble

**Q.** With “LLEKHGVVVRSSNYELYADLSERMMNVIGRFCDNQYIYSIDESFLYFDHYESCINDWHEYGHKIRKAIWKETRLPVGVGFGETATLSKAANHAAKKLSGFN” as the sequence, how does the “soluble on expression in E. coli” value read?
**A.** not soluble

**Q.** With “MITIEKYSPERHEQTCELSVLEEQSQFTVADVGEMLTRLEPTELPHLILADDDVVGFFLFDAAYSEKYDFCPKNSLGVRALLVDHRHQGKGIAKQAIQQFADFAKHHYPEFDALYLTVNCRNIPAYQCYLKSGFEDTNELYHGGPVGPQHIMRQPL” as the sequence, how does the “soluble on expression in E. coli” value read?
**A.** not soluble

**Q.** With “MNSKVGCLMAILLLAGCAKQTPPPQANNGWLKKTPQGNSLNVAKSSAGSTTVAYSDVIKQAASHYGVDETLIKAIIQVESGYNPDVVSRSNAVGLMQIKASTAGRDAYRMKGRNGQPSSRELKDPVKNIDIGAAYINILQNQQLAGINDPQTLRYATIVSYANGAGAMLRTFSSDKRLAVNKINSLSPNEFYQHIQKKHPAAQAPRYLWKVDTAYRAMSE” as the sequence, how does the “soluble on expression in E. coli” value read?
**A.** not soluble

**Q.** With “MSLIYCETERLILRDWHEDDLLPFQKMNANYDVRKYFPSLLSYRRSELDMRTMDAVIKDYGIGLFAVEDKESHQWIGFIGLNYIPETSDYPFKELPLYEIGWRLLPEFWGKGLATEGAKATLKLAEEHQIYDVYSFTAEANKASQRVMEKIGMTVYDHFELPNLSKYHLLKRQVRYYINLRKEGHHHHHH” as the sequence, how does the “soluble on expression in E. coli” value read?
**A.** soluble

**Q.** With “MSLSRFYHNLKFRSIPTTCATAQMCADRDEMQDSLICIPHFAAPEHYLFAGIDGHSGKYVSYKFSIRFPEIFYEMLSRDSGALNIIDALYQSFDTIQNEFANDPNVTDGAVATVIFMTPTKIYTAQCGDCRAVYITSSGVVQLAPEHKTSDRIEQMRIRSQGGFVSENLRVCGLLVARSVGDVKNKPIITHVPDITCFDRRDDEEYLVVATDGVWDEISNLKIHDILHSNRRVYRTSELSGLVKDIACVSCISGQHPDNIGIVLCRFEGHHHHHH” as the sequence, how does the “soluble on expression in E. coli” value read?
**A.** soluble

**Q.** For “GGVVVTPRAPYIHDLDGLPMAWDLVEWPIYTYRAKNDARLAIVSSSRGCKQQCSFCSQQLFWSQSWRARSAENFVAELEMLHTVHGVQVAMLSDEIPTFDRQRWVRILDLMIERQVPVKLLMETRVDDILRDADIMDRYREGGVEHIYVGVEAGTQETLDLFKKDTQVEQSKQAIDLINNADIVSETSFVLGMPDDTPESIAQTIELAKHYNPDMAFFLAIAPWPYAELYPQLEEYVATKDYRKYNLVEPVIKPKHMTLEELERQLGKASQQFFMH”, which “soluble on expression in E. coli” value is on record?
**A.** not soluble

**Q.** For “MTHTLQATNPLDQTAWHAWHFSRNKEAISRTGATSLSATEWISATTLKDAHTFPSLPGRWYKRGGGVVGAHLPPAFATTGTVQLRPGELLIAEDFTLTVIERLGQFALQVFDARNPKRFEFHSIAAFPPSEEWRIEARFFPEPDTVNTAAADGVIVATPTAGWVHFLKGRLDYRLRVTVQKNNLRALFSDNSSTLGVYQHRFVDIPRPDAEGNTIIDFNRAYLPPKALNRKFLCPSPSLNNHLNLTVEAGEKWVVAGGLEHHHHHH”, which “soluble on expression in E. coli” value is on record?
**A.** soluble
